Experimental data taken from patent US20200140542A1 (OSAKA UNIVERSITY, published 2020).
Blank lines part the entries; values can stand above or below the binder they belong to.

Experiments:
human CL-7 [1] = biological target: T1, human CL-7 (human, UniProt O95471 1-211); assay: flow cytometry, hybridoma culture supernatant on transfected cells
T1 construct: whole, on cells; also called hCL-7; hCL-7/HT1080 cells
T1 sequence (looked up): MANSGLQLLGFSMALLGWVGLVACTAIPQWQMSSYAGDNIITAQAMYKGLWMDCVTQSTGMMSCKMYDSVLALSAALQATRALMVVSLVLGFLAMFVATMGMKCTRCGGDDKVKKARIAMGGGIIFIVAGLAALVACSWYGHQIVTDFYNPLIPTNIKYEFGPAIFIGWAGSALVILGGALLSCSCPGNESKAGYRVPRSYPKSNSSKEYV
Experimental: (§1) After the hybridoma culture supernatants prepared in Example 1 (1A2, 2G8, and 3B2) were individually added and stirred, the resulting mixtures were allowed to stand on ice for 1 hour. After washing with 0.2% BSA-PBS once, goat anti-rat IgG (H +L)-FITC antibody (KPL) diluted with 1% BSA-PBS was added and stirred, and the resulting mixtures were allowed to stand on ice for 30 minutes. After washing with 0.2% BSA-PBS once, PI (Mitenyi Biotec) diluted with 1% BSA-PBS to a final concentration of 5 μg/mL was added, and FCM analysis was performed.

human CL-3 [2] = biological target: T2, human CL-3 (human, UniProt O15551 1-220); assay: as above
T2 construct: whole, on cells; also called hCL-3; hCL-3/HT1080 cells
T2 sequence (looked up): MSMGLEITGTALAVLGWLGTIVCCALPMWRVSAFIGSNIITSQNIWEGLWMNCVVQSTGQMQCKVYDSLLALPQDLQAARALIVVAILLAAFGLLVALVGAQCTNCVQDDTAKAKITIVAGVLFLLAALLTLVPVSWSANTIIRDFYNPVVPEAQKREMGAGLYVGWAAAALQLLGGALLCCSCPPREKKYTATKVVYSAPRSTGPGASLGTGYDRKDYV
Experimental: as §1

human CL-1 [3] = biological target: T3, human CL-1 (human, UniProt O95832 1-211); assay: as above
T3 construct: whole, on cells; also called hCL-1; hCL-1/HT1080 cells
T3 sequence (looked up): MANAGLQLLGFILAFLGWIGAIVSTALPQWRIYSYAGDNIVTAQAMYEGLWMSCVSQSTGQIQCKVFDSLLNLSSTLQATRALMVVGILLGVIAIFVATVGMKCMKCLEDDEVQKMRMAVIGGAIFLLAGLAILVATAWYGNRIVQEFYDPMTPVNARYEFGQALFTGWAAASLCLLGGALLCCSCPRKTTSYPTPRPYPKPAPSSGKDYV
Experimental: as §1

human CL-6 [4] = biological target: T4, human CL-6 (human, UniProt P56747 1-220); assay: as above
T4 construct: whole, on cells; also called hCL-6; hCL-6/HT1080 cells
T4 sequence (looked up): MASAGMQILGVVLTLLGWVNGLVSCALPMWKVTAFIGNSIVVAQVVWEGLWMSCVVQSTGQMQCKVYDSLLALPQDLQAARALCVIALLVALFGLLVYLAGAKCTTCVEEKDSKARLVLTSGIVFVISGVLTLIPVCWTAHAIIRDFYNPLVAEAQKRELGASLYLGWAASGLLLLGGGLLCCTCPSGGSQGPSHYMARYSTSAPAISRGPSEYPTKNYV
Experimental: as §1

human CL-4 [5] = biological target: T5, human CL-4 (human, UniProt O14493 1-209); assay: as above
T5 construct: whole, on cells; also called hCL-4; hCL-4/HT1080 cells
T5 sequence (looked up): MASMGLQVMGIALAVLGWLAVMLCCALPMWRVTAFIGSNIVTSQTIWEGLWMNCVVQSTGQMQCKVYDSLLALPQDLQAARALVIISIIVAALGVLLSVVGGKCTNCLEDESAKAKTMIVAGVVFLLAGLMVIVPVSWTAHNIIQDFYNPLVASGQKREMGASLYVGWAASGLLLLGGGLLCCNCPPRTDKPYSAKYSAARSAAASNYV
Experimental: as §1

human CL-9 [6] = biological target: T6, human CL-9 (human, UniProt O95484 1-217); assay: as above
T6 construct: whole, on cells; also called hCL-9; hCL-9/HT1080 cells
T6 sequence (looked up): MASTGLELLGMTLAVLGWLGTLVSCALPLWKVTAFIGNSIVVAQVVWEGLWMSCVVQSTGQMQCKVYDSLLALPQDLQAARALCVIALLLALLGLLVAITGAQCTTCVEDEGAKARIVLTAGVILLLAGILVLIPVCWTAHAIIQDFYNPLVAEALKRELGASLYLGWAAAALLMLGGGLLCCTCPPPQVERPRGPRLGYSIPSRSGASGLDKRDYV
Experimental: as §1

mouse CL-2 [7] = biological target: T7, mouse CL-2 (mouse, UniProt O88552 1-230); assay: flow cytometry, culture supernatant on transfected cells
T7 construct: whole, on cells; also called mCL-2; mCL-2/L cells
T7 sequence (looked up): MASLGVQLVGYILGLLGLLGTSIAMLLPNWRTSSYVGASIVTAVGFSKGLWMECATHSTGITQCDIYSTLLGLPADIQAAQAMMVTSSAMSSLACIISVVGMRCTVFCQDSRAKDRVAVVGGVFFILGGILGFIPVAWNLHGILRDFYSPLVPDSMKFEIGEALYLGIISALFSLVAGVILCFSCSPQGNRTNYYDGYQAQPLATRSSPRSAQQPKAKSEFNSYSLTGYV
Experimental: as §1
Further, all the three hybridoma culture supernatants 1A2, 2G8, and 3B2 prepared in Example 1 were also confirmed to have affinity to mCL-2/L cells.

mouse CL-2 [8] = biological target: T7, mouse CL-2; assay: flow cytometry on transfected cells, antibody at 5 µg/mL
Text: (§2) hCL-1/HT1080 cells, hCL-2/HT1080 cells, hCL-3/HT1080 cells, hCL-4/HT1080 cells, human CL-5 expressing HT1080 cells (hCL-5/HT1080 cells), hCL-6/HT1080 cells, hCL-7/HT1080 cells, and hCL-9/HT1080 cells, mouse CLDN1 expressing L cells (mCL-1/L cells), mCL-2/L cells, and mouse CL4 expressing L cells (mCL-4/L cells) were individually recovered by trypsin treatment. […] Subsequently, after washing with 0.2% BSA-PBS once, goat anti-human IgG (H+L)-FITC antibody (Jackson ImmunoResearch) diluted with 1% BSA-PBS was added and stirred, and the resulting mixtures were allowed to stand on ice for 30 minutes. After washing with 0.2% BSA-PBS once, PI diluted with 1% BSA-PBS to a final concentration of 5 μg/mL was added, and FCM analysis was performed.

mouse CLDN1 = biological target: T8, mouse CLDN1 (mouse, UniProt O88551 1-211); assay: flow cytometry on transfected cells
T8 construct: whole, on cells; also called mCL-1; mCL-1/L cells
T8 sequence (looked up): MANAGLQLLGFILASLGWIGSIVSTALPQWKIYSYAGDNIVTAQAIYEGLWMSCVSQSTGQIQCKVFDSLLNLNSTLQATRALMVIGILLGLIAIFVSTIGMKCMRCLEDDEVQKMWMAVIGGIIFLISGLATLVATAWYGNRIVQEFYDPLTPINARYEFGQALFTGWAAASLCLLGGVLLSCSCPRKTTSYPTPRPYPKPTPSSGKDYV
Text: as §2

mouse CL4 = biological target: T9, mouse CL4 (mouse, UniProt O35054 1-210); assay: flow cytometry on transfected cells
T9 construct: whole, on cells; also called mCL-4; mCL-4/L cells
T9 sequence (looked up): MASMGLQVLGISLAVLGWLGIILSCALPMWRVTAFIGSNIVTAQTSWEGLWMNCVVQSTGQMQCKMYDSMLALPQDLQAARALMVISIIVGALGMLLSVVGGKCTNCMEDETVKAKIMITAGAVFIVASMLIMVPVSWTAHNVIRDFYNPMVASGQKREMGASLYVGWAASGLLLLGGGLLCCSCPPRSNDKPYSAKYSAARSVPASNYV
Text: as §2

human CL-5 = biological target: T10, human CL-5 (human, UniProt O00501 1-218); assay: flow cytometry on transfected cells
T10 construct: whole, on cells; also called hCL-5; hCL-5/HT1080 cells
T10 sequence (looked up): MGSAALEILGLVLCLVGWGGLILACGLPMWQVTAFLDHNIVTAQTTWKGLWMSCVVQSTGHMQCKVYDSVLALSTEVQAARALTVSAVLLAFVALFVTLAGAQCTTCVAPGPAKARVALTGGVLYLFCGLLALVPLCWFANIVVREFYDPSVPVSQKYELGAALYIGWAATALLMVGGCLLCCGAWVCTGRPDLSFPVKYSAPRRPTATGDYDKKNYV
Text: as §2

human CL-7 [9] = biological target: T1, human CL-7; assay: flow cytometry on transfected cells
Text: as §2

human CL-3 [10] = biological target: T2, human CL-3; assay: flow cytometry on transfected cells
Text: as §2

human CL-1 [11] = biological target: T3, human CL-1; assay: flow cytometry on transfected cells
Text: as §2

human CL-6 [12] = biological target: T4, human CL-6; assay: flow cytometry on transfected cells
Text: as §2

human CL-4 [13] = biological target: T5, human CL-4; assay: flow cytometry on transfected cells
Text: as §2

human CL-9 [14] = biological target: T6, human CL-9; assay: flow cytometry on transfected cells
Text: as §2

binding result (human CL-7 [1]): no binding | binding result (human CL-3 [2]): no binding | binding result (human CL-1 [3]): no binding | binding result (human CL-6 [4]): no binding | binding result (human CL-4 [5]): no binding | binding result (human CL-9 [6]): no binding | binding result (mouse CL-2 [7]): binds
B1: anti-CL-2 antibody 2G8 (antibody, IgG2b, V domains shown)
VH: QVNLLQSGAALVKPGASVRLSCRVSGYSFTVSFLHWVKQSHGKSLEWIGYINPYSGSPNYNEKFKSKTTLTVDKSTSTAYMELSGLTSEDSASYYCTNWDYWGQGVMVTVSS
VL: DVVMTQTPVSLSLAIGQPASISCKSSQSLLGSSGKTFLNWILQRPGQSPKRLIYQVSTLYSEVPDRFSGSGSETEFTLKITRVEAEDLGVYYCWQGIHFPHTFGAGTKLELKR
notes: also called clone 2G8; hybridoma culture supernatant 2G8

binding result (mouse CL-2 [8]): binds | binding result (mouse CLDN1): no binding (tested: 5 µg/mL) | binding result (mouse CL4): no binding (tested: 5 µg/mL) | binding result (human CL-5): no binding (tested: 5 µg/mL) | binding result (human CL-7 [9]): no binding (tested: 5 µg/mL) | binding result (human CL-3 [10]): no binding (tested: 5 µg/mL) | binding result (human CL-1 [11]): no binding (tested: 5 µg/mL) | binding result (human CL-6 [12]): no binding (tested: 5 µg/mL) | binding result (human CL-4 [13]): no binding (tested: 5 µg/mL) | binding result (human CL-9 [14]): no binding (tested: 5 µg/mL)
B2: anti-CL-2 human-rat chimeric antibody 2G8 produced in Example 4 (antibody, V domains shown)
VH: B1 VH
VL: B1 VL
notes: Variable regions of rat 2G8 cloned into vectors with human constant regions (VH: pFUSE-CHIg-hG1, human IgG1); also called anti-CL-2 chimeric antibody 2G8; anti-CL-2 chimeric antibody 2G8a
